Measured values reported in patent publication US11945844B2, “Taste and flavor-modifier proteins” (AMAI PROTEINS LTD., priority 2018, dated 2024).

What was measured:
healthy assessors [1] = test: Example 1B: double-blind taste assay, sweet taste threshold in soft drink model solution; format: in vivo, human; conditions: for sweetness average score: grade 0-10; for sweetness potency simulating 1 °Bx perception: relative to sucrose
Description: The sweetness potency of MNEI-based proteins described herein relative to sucrose is typically in the range of 1:700 to 1:16,000. Thus, for the sake of comparison, the MNEI-based proteins and MNEI (as a reference protein) solutions were initially diluted 1:1000 and further diluted as needed. In general, the sweetness threshold of sugar for most people in soft drinks is 0.32%-1.0%. Calculations of MNEI-based proteins and MNEI (as a reference protein concentrations were carried out accordingly. The solutions that were used in this study are detailed in Table 5. The solutions were prepared as follows: for each solution, an amount sweetener (sucrose/MNEI/Designer (modified) Protein; See Table 1 for details) was added as indicated in Table 3 and the solution was completed to 100 g with water (in order to obtain 1% sugar equivalent sweetener). 20 ml of each solution was poured into tasting cup and each sample was marked for blind testing according to Table 5. To evaluate the sweetness threshold for each one of the […] solutions, a double-blind taste assay was performed. The samples tested included MNEI, two MNEI designer proteins (DM08 and DM10), sucrose and mineral water. A series of concentrations were prepared by diluting the stock solution of proteins with mineral water (pH 6.9) shortly before the taste assay (Table 3). Five healthy assessors participated in this session, 2 men and 3 women, 30-50 years old of which 3 were trained tasters. Twenty ml samples were tested randomly, in comparison to sugar solution. Before each assay, assessors were requested to rinse their mouth with water and to eat a neutral-taste cracker until no residual taste remained. The test solution was held in the mouth for at least 10 seconds. The assessors then graded the sample according to their response between 0-10; 0-no sweet perception, 10-very sweet. The sweetness detection threshold was defined as the lowest concentration at which the taster recognized the sample as sweet. Sweetness potencies are reported relative to sucrose.

healthy assessors [2] = test: Example 1C: double-blind taste assay, sweet taste threshold in solution; format: in vivo, human; conditions: for sweetness potency compatible with / simulating 1 °Bx sugar solution: relative to sucrose
Description: The solutions that were used in this study are detailed in Table 4. The solutions were prepared as follows: for each solution, an amount sweetener (sucrose/MNEI/Designer Protein; See Table 1 for details) was added as indicated in Table 6 and the solution was completed to 100 g with water (in order to obtain 1% sugar equivalent sweetener). 20 ml of each solution was poured into tasting cup and each sample was marked for blind testing according to Table 6. To evaluate the sweetness threshold for each one of the […] solutions, a double-blind taste assay was performed. The samples tested included MNEI, […] ([…]), sucrose and mineral water. A series of concentrations were prepared by diluting the stock solution of proteins with mineral water (pH 6.9) shortly before the taste assay (Table 6). Six healthy assessors participated in this session, 5 men and 1 woman, 30-75 years old of which half were trained tasters The sweetness detection threshold was defined as the lowest concentration at which the taster recognized the sample as sweet. Sweetness potencies are reported relative to sucrose. Twenty ml samples were tested randomly, in comparison to sugar solution. Before each assay, assessors were requested to rinse their mouth with water and to eat a neutral-taste cracker until no residual taste remained. The test solution was held in the mouth for at least 10 seconds. The assessors then graded the sample according to their response between 0-10; 0-no sweet perception, 10-very sweet. The sweetness detection threshold was defined as the lowest concentration at which the taster recognized the sample as sweet. Sweetness potencies are reported relative to sucrose.

trained participants = test: Example 1D: blind testing of sweetness potency, aftertaste and lingering in comparison to sugar solution; format: in vivo, human; conditions: for sweetness potency at 8 °BX perception, greater than sugar / sweetness threshold, greater than sugar by weight: fold over sugar
Description: Based on the optimization above, the sweetness potency, the aftertaste and the lingering effect of DM08 and DM09 were tested as compared with MNEI and additional sweeteners as shown in Table 7. Test method included blind testing in 6 trained participants of each one of the proteins in comparison to sugar solution.

participants = test: Example 1D: blind comparison of combinations at 8.0° BX perception with 3.0° BX sugar addition; format: in vivo, human; conditions: 8.0 °BX perception (3.0° BX sugar addition)
Description: Further combinations were tested in blind comparison of the various combinations to sugar solution in 6 participants.

[3] = single substitution in MNEI, Zheng et al; cited from earlier work
[4] = single substitution in MNEI, Zheng et al; cited from earlier work; remark: listed apart in the source
[5] = Sweetness potency relative to MNEI (Table 10); format: in vivo; conditions: MNEI = 1.0
[6] = Structural thermal stability (Tm); format: physicochemical
From the text: The term “structural thermal stability” or “thermal stability” as used herein refers to the ability of the modified protein to retain its 3D structure at temperatures above that of the reference protein. The 3D structural stability of a protein can be measured by any method known in the art, such as Circular Dichroism (CD), or thermal shift assays such as Differential Scanning Fluorimetry (DSF) or Differential Scanning calorimetry (DSC). The 3D structure of a protein may have an effect on the function of the protein.

Shelf life stability = format: physicochemical; conditions: at 4° C.
Description: In some embodiments the modified protein has improved shelf life relative to the reference protein. Improved shelf life refers to no sensed change in the sweetness (function) or physical deterioration of a product comprising the composition (e.g. color change, phase separation etc.) after exposure of the product to any temperature up to 150° C., at times, to any temperature between 4° C. to 150°, or to 100°.

[7] = dilution factor 1:500, grade 0-10
[8] = dilution factor 1:1,000, grade 0-10
[9] = dilution factor 1:2,000, grade 0-10

Molecule: OC[C@H]1O[C@@](CO)(O[C@H]2O[C@H](CO)[C@@H](O)[C@H](O)[C@H]2O)[C@@H](O)[C@@H]1O [Sucrose, reference compound]
- sweetness average score (healthy assessors [1]; 0.5% sucrose solution, 5 assessors): 0.63±0.6
- sweetness average score (healthy assessors [1]; 1% sucrose solution, 5 assessors): 1.25±0.9
- sweetness average score (healthy assessors [2]; 0.5% sucrose solution, grade 0-10, 6 assessors): 1.9±0.9
- sweetness average score (healthy assessors [2]; 1% sucrose solution, grade 0-10, 6 assessors): 3.8±1.9
- Estimated threshold concentration (trained participants; ratio relative to sucrose, 6 trained participants): 1
- Additional After Taste & Notes (trained participants; single sweetener (Table 7)): No
- Late onset (trained participants; single sweetener (Table 7)): No
- Lingering After Taste (trained participants; single sweetener (Table 7)): No
- After Taste (participants): No
- Late onset (participants): No
- Lingering (participants): No

B1: E2N: MNEI with amino acid substitution E2N, CPD model; also reported by Zheng et al (protein)
chain: GNWEIIDIGPFTQNLGKFAVDEENKIGQYGRLTFNKVIRPCMKKTIYENEGFREIKGYEYQLYVYASDKLFRADISEDYKTRGRKLLRFNGPVPPP
modifications: Monelin MNEI
notes: MNEI with amino acid substitution E2N, CPD model; also reported by Zheng et al
- improved sweetness [3]: 3 fold
- stability [4]: slight reduced stability

B2: DM10: modified MNEI protein, SEQ ID NO: 18, Q28K/R31T/N35T/S67N (protein)
chain: GEWEIIDIGPFTQNLGKFAVDEENKIGKYGTLTFTKVIRPCMKKTIYENEGFREIKGYEYQLYVYANDKLFRADISEDYKTRGRKLLRFNGPVPPP
modifications: DM10
- sweetness potency simulating 1 °Bx perception (healthy assessors [1]): about 1,000
- Sweetness Potency relative to MNEI [5]: 0.5
- Tm (° C.) Structural thermal stability [6]: 71 °C

B3: DM08: modified MNEI protein, SEQ ID NO:16, E2N/E23V/Y65K (protein)
chain: GNWEIIDIGPFTQNLGKFAVDEVNKIGQYGRLTFNKVIRPCMKKTIYENEGFREIKGYEYQLYVKASDKLFRADISEDYKTRGRKLLRFNGPVPPP
modifications: DM8
- sweetness potency simulating 1 °Bx perception (healthy assessors [1]): about 10,000
- sweetness potency at 8 °BX perception, greater than sugar (trained participants): 3,500
- sweetness threshold, greater than sugar by weight (trained participants): 10,000
- Additional After Taste & Notes (trained participants; single sweetener (Table 7)): Low bitterness
- Lingering After Taste (trained participants; single sweetener (Table 7)): Sweet lingering
- Sweetness Potency relative to MNEI [5]: 6.0
- Tm (° C.) Structural thermal stability [6]: 81 °C
- shelf life stability (Shelf life stability): At least 6 months

B4: DM11: modified MNEI protein, SEQ ID NO: 19, I8T/N14K/C41T/R84L (protein)
chain: GEWEIIDTGPFTQKLGKFAVDEENKIGQYGRLTFNKVIRPTMKKTIYENEGFREIKGYEYQLYVYASDKLFRADISEDYKTRGLKLLRFNGPVPPP
modifications: DM11
- sweetness average score (healthy assessors [2]; [7]): 0.0±0.0
- sweetness average score (healthy assessors [2]; [8]): 0.3±0.8
- sweetness average score (healthy assessors [2]; [9]): 0.4±0.9
- sweetness potency compatible with / simulating 1 °Bx sugar solution (healthy assessors [2]): below 500
- Sweetness Potency relative to MNEI [5]: 0.2
- Tm (° C.) Structural thermal stability [6]: 69 °C

B5: MNEI: single chain Monellin (MNEI) reference protein, SEQ ID NO:5, 96 amino acids (protein)
chain: GEWEIIDIGPFTQNLGKFAVDEENKIGQYGRLTFNKVIRPCMKKTIYENEGFREIKGYEYQLYVYASDKLFRADISEDYKTRGRKLLRFNGPVPPP
modifications: Monelin MNEI
- sweetness average score (healthy assessors [1]; dilution factor 1:1,000): 2.2±1.0
- sweetness average score (healthy assessors [1]; dilution factor 1:2,000): 0.98±0.4
- sweetness average score (healthy assessors [1]; dilution factor 1:4,000): 0.68±0.2
- sweetness potency simulating 1 °Bx perception (healthy assessors [1]): about 2,000
- sweetness average score (healthy assessors [2]; [7]): 4.7±3.2
- sweetness average score (healthy assessors [2]; [8]): 2.5±1.4
- sweetness average score (healthy assessors [2]; [9]): 1.0±0.7
- sweetness potency compatible with / simulating 1 °Bx sugar solution (healthy assessors [2]): about 1,000
- Lingering After Taste (trained participants; single sweetener (Table 7)): Sweet lingering
- Sweetness Potency relative to MNEI [5]: 1.0
- Tm (° C.) Structural thermal stability [6]: 69 °C
- shelf life stability (Shelf life stability): At least 12 months

B6: DM03: modified MNEI protein, SEQ ID NO: 15, E2N/I8T/N14K/E23A/Q28K/R31T/N35T/C41T/Y65K/S67N/R84L (protein)
chain: GNWEIIDTGPFTQKLGKFAVDEANKIGKYGTLTFTKVIRPTMKKTIYENEGFREIKGYEYQLYVKANDKLFRADISEDYKTRGLKLLRFNGPVPPP
modifications: DM3
- Sweetness Potency relative to MNEI [5]: Not sweet at all
- Tm (° C.) Structural thermal stability [6]: 81.5 °C

B7: DM09: modified MNEI protein, SEQ ID NO:17, E2N/E23A/Y65R (protein)
chain: GNWEIIDIGPFTQNLGKFAVDEANKIGQYGRLTFNKVIRPCMKKTIYENEGFREIKGYEYQLYVRASDKLFRADISEDYKTRGRKLLRFNGPVPPP
modifications: DM9
- sweetness potency at 8 °BX perception, greater than sugar (trained participants): 4,000
- sweetness threshold, greater than sugar by weight (trained participants): 15,000
- Sweetness Potency relative to MNEI [5]: 7.5
- Tm (° C.) Structural thermal stability [6]: 81 °C
- melting temperature compared with MNEI ([6]; summary of Table 10): at least equal or improved
- shelf life stability (Shelf life stability): At least 6 months

B8: DM12: modified MNEI protein, SEQ ID NO: 20, I8T/C41T as printed in Table 4 (protein)
chain: GEWEIIDTGPFTQNLGKFAVDEENKIGQYGRLTFNKVIRPTMKKTIYENEGFREIKGYEYQLYVYASDKLFRADISEDYKTRGLKLLRFNGPVPPP
modifications: DM12
- sweetness average score (healthy assessors [2]; all dilution factors (1:500, 1:1,000, 1:2,000), no noticeable dose response): ~1.0
- Sweetness Potency relative to MNEI [5]: 0.5
- Tm (° C.) Structural thermal stability [6]: 65 °C
